Measurements published in publication PMC6620605 (Current biology : CB, 2019).

Biological target: T1, 6x His-SEPT9 (human septin 9, isoform 1 / isoform a) (human, UniProt Q9UHD8-1 1-586)
T1 sequence (looked up): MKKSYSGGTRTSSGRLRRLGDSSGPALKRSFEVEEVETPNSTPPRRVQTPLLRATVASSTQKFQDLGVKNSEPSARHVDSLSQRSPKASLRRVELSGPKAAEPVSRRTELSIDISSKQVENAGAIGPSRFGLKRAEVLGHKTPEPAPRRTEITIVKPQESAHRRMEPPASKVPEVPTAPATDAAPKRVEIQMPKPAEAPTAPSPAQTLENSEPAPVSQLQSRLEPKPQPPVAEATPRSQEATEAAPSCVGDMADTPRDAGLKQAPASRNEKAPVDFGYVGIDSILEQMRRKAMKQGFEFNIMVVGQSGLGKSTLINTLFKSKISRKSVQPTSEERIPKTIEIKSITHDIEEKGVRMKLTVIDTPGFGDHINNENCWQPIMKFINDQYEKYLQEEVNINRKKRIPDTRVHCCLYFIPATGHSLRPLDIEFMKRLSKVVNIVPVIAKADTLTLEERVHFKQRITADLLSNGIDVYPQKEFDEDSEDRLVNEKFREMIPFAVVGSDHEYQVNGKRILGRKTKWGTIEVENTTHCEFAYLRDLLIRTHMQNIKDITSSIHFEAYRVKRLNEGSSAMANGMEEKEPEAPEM
Assay: pull-down

B1: GST-TSG101 UEV (TSG101 aa 1-145) (domain or fragment, human, UniProt Q99816-1 1-145, looked up)
chain: MAVSESQLKKMVSKYKYRDLTVRETVNVITLYKDLKPVLDSYVFNDGSSRELMNLTGTIPVPYRGNTYNIPICLWLLDTYPYNPPICFVKPTSSMTIKTGKHVDANGKIYLPYLHEWKHPQSDLLGLIQVMIVVFGDEPPVFSRP
B1: binds.
